Source: paper PMC3549491, “Structural Basis of the Intracellular Sorting of the SNARE VAMP7 by the AP3 Adaptor Complex” (Developmental Cell, 2012)

B1: GST δ-adaptin (680–728) (domain or fragment, UniProt O14617-5 680-728, looked up)
chain: PFYIKSSPSPQKRYQDTPGVEHIPVVQIDLSVPLKVPGLPMSDQYVKLE
notes: source: Rosetta2(DE3)pLysS, purified (glutathione-Sepharose, Superdex 75)

Columns and labels:
[1] = molecular target: T1, VAMP7 longin domain (UniProt P70280 1-120); assay: ITC
T1 chain: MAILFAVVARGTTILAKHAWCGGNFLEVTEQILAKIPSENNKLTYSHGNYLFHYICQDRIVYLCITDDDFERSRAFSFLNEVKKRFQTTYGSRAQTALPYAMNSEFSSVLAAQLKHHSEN

[2] = molecular target: VAMP7 longin domain L43S/Y45S (UniProt P70280 1-120, L43S | Y45S); assay: ITC
[3] = molecular target: T2, VAMP7 longin domain (UniProt P70280 1-120); assay: ITC; Microcal Auto-iTC200; VAMP7 longin domain in the cell at 0.15–0.2 mM, GST delta constructs at 0.8–1.2 mM titrated; 50 mM HEPES pH 7.4, 200 mM NaCl, 4 mM ß-mercaptoethanol; details: both partners purified
T2 construct: VAMP7 (Ti-VAMP), longin domain; also called VAMP7LD; VAMP longin domain
T2 sequence (looked up): T1 chain

Binder	Kd [1] [µM]	Kd [2] [µM]	Kd [3] [µM]
PFYIKSSPSPQKRYQDTPGVEHSPSVQIDLSVPLKVPGLPMSDQYVKLE (domain or fragment) [GST δ-adaptin (680–728) I702S/V704S]	> 300		
B1		> 300	14
PFYIKSSPSPQKRYQDTPGVEHIPVVQIDSSVPSKVPGLPMSDQYVKLE (domain or fragment) [GST δ-adaptin (680–728) L709S/L713S]	> 300		
